Measured values reported in patent publication US8993248B2, “Truncated human vitamin D binding protein and mutation and fusion thereof and related materials and methods of use” (Abbott Laboratories, priority 2011, dated 2015).
Changes are numbered by the printed parent chain. Names may count otherwise.

How the values were obtained:
[1] = molecular target: T1, yeast surface displayed hDBP3 (Homo sapiens, UniProt P02774); assay: Inhibition assay of free vitamin Ds on yeast surface displayed hDBP3; type: binding; settings: for Ki: free vitamin D as inhibitor, yeast surface displayed hDBP3
T1 construct: made in house; host or cells: yeast (surface display, pYD vector)
T1 sequence (P02774 17-227): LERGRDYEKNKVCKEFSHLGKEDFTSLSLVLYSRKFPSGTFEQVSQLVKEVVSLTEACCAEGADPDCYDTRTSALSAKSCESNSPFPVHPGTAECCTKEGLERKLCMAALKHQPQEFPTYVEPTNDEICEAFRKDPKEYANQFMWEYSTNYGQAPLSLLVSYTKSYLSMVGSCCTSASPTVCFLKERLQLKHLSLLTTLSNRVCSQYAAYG
Method: Binding affinity of the hDBP3 truncate to vitamin D2, vitamin D3, 25-hydroxy vitamin D2, and 25-hydroxy vitamin D3 was determined.

[2] = molecular target: T2, hDBP4-hFc 3-6 protein coated on microparticles (Homo sapiens, UniProt P02774, S92A/S95A); assay: Effect of displacement agent on microparticle DBP assay on the Abbott ARCHITECT instrument; type: binding; settings: ANSA-present versus ANSA-free; FIG. 16
T2 construct: made in house
T2 sequence (P02774 with tags, fused parts or gaps S92A/S95A): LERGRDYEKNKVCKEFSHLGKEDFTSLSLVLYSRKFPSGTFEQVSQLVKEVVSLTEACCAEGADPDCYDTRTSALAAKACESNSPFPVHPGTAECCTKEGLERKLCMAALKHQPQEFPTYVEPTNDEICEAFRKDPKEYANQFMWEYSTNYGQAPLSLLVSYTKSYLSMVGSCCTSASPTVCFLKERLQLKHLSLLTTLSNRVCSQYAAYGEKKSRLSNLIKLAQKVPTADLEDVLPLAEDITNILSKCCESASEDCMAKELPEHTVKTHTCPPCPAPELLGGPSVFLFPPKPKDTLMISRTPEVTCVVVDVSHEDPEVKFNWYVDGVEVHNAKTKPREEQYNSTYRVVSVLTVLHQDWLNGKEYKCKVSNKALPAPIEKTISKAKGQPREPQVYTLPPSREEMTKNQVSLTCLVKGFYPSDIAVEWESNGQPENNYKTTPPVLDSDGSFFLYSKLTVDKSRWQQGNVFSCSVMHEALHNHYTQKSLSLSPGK
Method: For this study hDBP4-hFc 3-6 protein was coated on microparticles and binding was assessed on the Abbott ARCHITECT instrument to study the effect of adding a non-competitive displacement agent comprising 8-anilino-1-napthalenesulfonic acid ammonium salt (ANSA). ANSA separates any vitamin D metabolite in the sample from vitamin D binding protein to which the vitamin D metabolite is bound, was investigated. Microparticle diluent was used to remove ANSA in one condition (ANSA-free) but not the other (ANSA-present).

[3] = Storage stability of the protein by SDS-PAGE; type: physicochemical; settings: protein expressed from HEK293 cells; room temperature, 2-8° C. and 37° C.; day 0, 3, 5, 7
Method: The hDBP4-hFc 3-6 protein expressed from HEK293 cells was tested for stability. hDBP4-hFc 3-6 protein (about 100 μl of 0.5 mg/ml) was stored at room temperature, 2-8° C., and 37° C. A sample of about 20 μl of hDBP4-hFc 3-6 was taken at day 0, 3, 5, and 7, mixed with 20 μl reduced 2× Laemmli sample buffer, and stored at 2-8° C. until SDS-PAGE gel analysis.

[4] = Reactivity of hDBP-hFc fusion proteins to 25-hydroxy vitamin D3-3-biotin (ELISA); type: binding; settings: fusion protein produced as a dimer by HEK 293F transient transfection
Text: The hDBP3 open reading frame (ORF) was amplified by PCR and linked to hFc, which contained a short hinge region with the first six amino acids deleted (to increase secretion), through SOEing (splicing by overlapping extension) PCR. The fusion protein ORF was cloned in pBOS vector (acquired from Abbott Bioresearch Center, Worcester, Mass.) through Nru I/Not I restriction digestion. Secretion of the fusion protein was directed by IgG heavy chain secretion signal peptide. The fusion protein was produced as a dimer by human embryonic kidney (HEK) 293F transient transfection. However, its reactivity to 25-hydroxy vitamin D3-3-biotin was weak.
The hDBP4 ORF was amplified from the pYD vector and linked to hFc through SOEing PCR. The fusion protein ORF was cloned in pBOS vector through Nru I/Not I restriction digestion. Secretion of the fusion protein was directed by IgG heavy chain secretion signal peptide. The fusion protein was produced as a dimer by HEK 293F transient transfection. Its reactivity to 25-hydroxy vitamin D3-3-biotin was confirmed by ELISA.
The hDBP3 mutant 3-6 was amplified from a pYD vector. The hFc with 56 amino acids from hDBP4 on its N-terminus was amplified from pBOS hDBP4-hFc. The two fragments were linked together through SOEing PCR. The resulting DNA vector was named pBOS hDBP4-hFc 3-6, which contained the two point mutations (S76A, S79A). […]

[5] = molecular target: G-actin; settings: read-out: Binding affinity for G-actin; cited from earlier work
[6] = Ligand titration of yeast surface displayed hDBP truncates; type: binding, human; settings: for Binding to the ligand 25-hydroxy vitamin D3-3-biotin, in words: compared to full-length hDBP; for EC50: yeast surface displayed hDBP GC1S constructs, ligand 25-OH vitamin D3-3-biotin, read-out: Ag50 (antigen concentration at 50% of maximal binding signal)
Method: A total of five hDBP truncates and the full-length hDBP (Table I) were cloned into pYD yeast display vector (Invitrogen) by polymerase chain reaction (PCR) and Nco I/Xho I restriction digestion.
Binding affinity to 25-hydroxy vitamin D3-3-biotin of each construct was measured by ligand titration (Table II). The Ag50 is the value (antigen concentration) generated at 50% of maximal binding signal, thus translating into the highest affinity. This testing was performed similar to that detailed in Friguet et al., J. Immunolog. Methods, 77:305-319 (1985).

[7] = Screen of the yeast-displayed hDBP3 mutation library (MACS/FACS, equilibrium competition staining); type: binding, human; settings: relative to yeast surface-displayed hDBP3
Text: The library was screened by one round of Magnetic Activated Cell Sorting (MACS) and two rounds of Fluorescence Activated Cell Sorting (FACS) with equilibrium competition staining. […] Mutant 3-6 contained two point mutations (S76A, S79A). Plasmid DNA of this clone was isolated.

C=C1CC[C@H](O)C/C1=C/C=C1\CCC[C@]2(C)[C@@H]([C@H](C)/C=C/[C@H](C)C(C)(C)O)CC[C@@H]12 [25-hydroxy Vitamin D2]
Ki [1]: 6.4 nM

N.O=S(=O)(O)c1cccc2cccc(Nc3ccccc3)c12 [ANSA, 8-anilino-1-napthalenesulfonic acid ammonium salt]
Effect on binding of vitamin D and tracer to DBP on the solid phase [2]: disturbed the binding of vitamin D from the sample and tracer to the DBP on the solid phase

C=C1CC[C@H](O)C/C1=C/C=C1\CCC[C@]2(C)[C@@H]([C@H](C)/C=C/[C@H](C)C(C)C)CC[C@@H]12 [Vitamin D2]
Ki [1]: 1390 nM

C=C1CC[C@H](O)C/C1=C/C=C1\CCC[C@]2(C)[C@@H]([C@H](C)CCCC(C)(C)O)CC[C@@H]12 [25-hydroxy Vitamin D3]
Ki [1]: 3.8 nM

hDBP4-hFc 3-6: hDBP3 mutant 3-6 (S76A, S79A) plus 56 amino acids of hDBP4 fused to hFc, SEQ ID NO:10; dimer
Degradation on storage (SDS-PAGE 4-20%) [3]: no degradation
Reactivity to 25-hydroxy vitamin D3-3-biotin [4]: higher than wild-type fusion protein

C=C1CC[C@H](O)C/C1=C/C=C1\CCC[C@]2(C)[C@@H]([C@H](C)CCCC(C)C)CC[C@@H]12 [Vitamin D3]
Ki [1]: 2970 nM

B1: DBP: Naturally occurring triple-domain, monomeric serum glycoprotein that binds and transports vitamin D (protein, UniProt P02774 17-474, looked up)
Vitamin D-binding protein: LERGRDYEKNKVCKEFSHLGKEDFTSLSLVLYSRKFPSGTFEQVSQLVKEVVSLTEACCAEGADPDCYDTRTSALSAKSCESNSPFPVHPGTAECCTKEGLERKLCMAALKHQPQEFPTYVEPTNDEICEAFRKDPKEYANQFMWEYSTNYGQAPLSLLVSYTKSYLSMVGSCCTSASPTVCFLKERLQLKHLSLLTTLSNRVCSQYAAYGEKKSRLSNLIKLAQKVPTADLEDVLPLAEDITNILSKCCESASEDCMAKELPEHTVKLCDNLSTKNSKFEDCCQEKTAMDVFVCTYFMPAAQLPELPDVELPTNKDVCDPGNTKVMDKYTFELSRRTHLPEVFLSKVLEPTLKSLGECCDVEDSTTCFNAKGPLLKKELSSFIDKGQELCADYSENTFTEYKKKLAERLKAKLPDATPTELAKLVNKHSDFASNCCSINSPPLYCDSEIDAELKNIL
Kd [5]: ~10 nM

B2: hDBP3: hDBP truncate: domain I plus first α-helix of domain II (amino acids 1-211), SEQ ID NO:12 (protein, listed as Homo sapiens)
chain: T1 sequence (P02774 17-227)
Binding to the ligand 25-hydroxy vitamin D3-3-biotin, in words [6]: bound to the ligand with similar affinity to the full-length hDBP
EC50 [6]: 83 nM
Binding preference among vitamin D2, vitamin D3, 25-hydroxy vitamin D2 and 25-hydroxy vitamin D3 [1]: preferentially bound to hydroxylated vitamin D213

B3: hDBP4: hDBP truncate: domain I plus about half of domain II, 56 amino acids longer than hDBP3, SEQ ID NO:14 (protein, listed as Homo sapiens)
chain: LERGRDYEKNKVCKEFSHLGKEDFTSLSLVLYSRKFPSGTFEQVSQLVKEVVSLTEACCAEGADPDCYDTRTSALSAKSCESNSPFPVHPGTAECCTKEGLERKLCMAALKHQPQEFPTYVEPTNDEICEAFRKDPKEYANQFMWEYSTNYGQAPLSLLVSYTKSYLSMVGSCCTSASPTVCFLKERLQLKHLSLLTTLSNRVCSQYAAYGEKKSRLSNLIKLAQKVPTADLEDVLPLAEDITNILSKCCESASEDCMAKELPEHTV
Binding to the ligand 25-hydroxy vitamin D3-3-biotin, in words [6]: retains binding affinity
EC50 [6]: 95 nM

B4: 3-6: hDBP3 clone with two point mutations (S76A, S79A), SEQ ID NO:2 (protein, listed as Homo sapiens)
chain: T1 sequence (P02774 17-227) with S76A, S79A
Increase in affinity to 25-hydroxy vitamin D3-3-biotin [7]: six-fold increase in affinity

B5: hDBP0 (Full-Length): Full-length human vitamin D binding protein, allele GC1S; domains I, II, III of 191, 187, 80 amino acids (protein, UniProt P02774 17-474, looked up)
Vitamin D-binding protein: B1 Vitamin D-binding protein
modifications: allele GC1S
notes: domains I, II, III of 191, 187, 80 amino acids
EC50 [6]: 65 nM
